Measured values reported in article PMC4098744, “Systematic family‐wide analysis of sodium bicarbonate cotransporter NBCn1/SLC4A7 interactions with PDZ scaffold proteins” (Physiological Reports, 2014).

Molecular target: T1, PSD‐95 third PDZ domain (residue 307–446) (UniProt P78352 307-446)
T1 construct: also called PSD‐95 (3); PSD‐95 (domain 3); source: spotted on a PDZ array membrane (Zhang et al. 2007)
Assay: peptide or protein array; PDZ filter overlay: 96 Class I PDZ domains spotted on a nylon membrane; overlaid with 100 nmol/L GST/NBCn1 (or GST only) in blot buffer (50 mmol/L NaCl, 2% dry milk, 0.1% Tween 20, 10 mmol/L HEPES; pH 7.4) for 1 h at room temperature; detected with HRP-conjugated anti-GST antibody; done three times
Details: both partners purified

T1 sequence (P78352 307-446): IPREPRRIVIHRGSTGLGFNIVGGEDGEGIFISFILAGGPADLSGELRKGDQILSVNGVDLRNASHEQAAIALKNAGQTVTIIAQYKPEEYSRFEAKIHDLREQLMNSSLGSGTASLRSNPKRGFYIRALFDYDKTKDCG

binding result: binds
B1: GST/NBCn1 fusion protein containing the C‐terminal 26 amino acids of rat NBCn1 (domain or fragment, UniProt Q9R1N3-2 1229-1254, looked up)
chain: PEKPVSVTINFEDEPSKKYMDAETSL
notes: NBCn1 (SLC4A7), rat, the C-terminal 26 amino acids; also called C‐terminal domain of NBCn1 fused to GST; source: prepared as described previously (Lee et al. 2012)
